The source of these data is the supplement of paper PMC6757056.

B1: library; a variant is named by its letters at N, in order (parent)
chain: GCUGUCACCGGUGUAUUACCCUAGUGGUCGACCGGUCUGAUGAGUCUNNNNNNAGACGAAACAGC

± gives the standard deviation of the averaged measurements.

In series [1] the parent is B1. The series is described as follows: FACS-Seq fitted mean relative fluorescence mCherry/BFP without ligand (log10 relative fluorescence); ligand: hypoxanthine (xanthine aptamer); higher = higher reporter protein expression. The conditions noted are these: HEK293T, ligand present: no. As to the method:
(§1)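 Hammerhead (sTRSV) ribozyme switch libraries with a ligand aptamer grafted on stem I and a randomized N4-6 loop II, cloned into the 3' UTR of mCherry and transiently transfected into HEK293T cells; RNA-Seq 72 h post transfection with ligand added 1 h before transfection; RNA read count / plasmid DNA read count normalized to the non-cleaving sTRSVctl (x100), log10; sequences with >100 DNA reads. FACS-Seq: lentiviral library sorted into 6 bins after 48 h ligand, log-normal fit mean of mCherry/BFP scaled to controls. Printed sequences are partial switch sequences.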

Variants of B1 are the subject of series [2]. In words: normalized RNA/DNA level with ligand (relative to sTRSVctl = 100) (log10 (% of sTRSVctl)); ligand: hypoxanthine (xanthine aptamer); higher = less ribozyme self-cleavage, higher mRNA level. The conditions noted are these: ligand concentration (+) RNA-Seq: 5 mM, HEK293T, reporter: mCherry (pCS4076), ligand present: yes. As to the method: as §1
In series [3] the parent is B1. The series is described as follows: normalized RNA/DNA level without ligand (relative to sTRSVctl = 100) (log10 (% of sTRSVctl)); ligand: hypoxanthine (xanthine aptamer); higher = less ribozyme self-cleavage, higher mRNA level. The conditions noted are these: HEK293T, reporter: mCherry (pCS4076), ligand present: no. Here is the method:
as §1

Variants of B1 are the subject of series [4]. In words: FACS-Seq fitted mean relative fluorescence mCherry/BFP with ligand (log10 relative fluorescence); ligand: hypoxanthine (xanthine aptamer); ligand concentration (+) FACS-Seq: 5 mM; higher = higher reporter protein expression. The settings on record: HEK293T, ligand present: yes. Here is the method: as §1

Turning to GCUGUCACCGGUGUAUUACCCUAGUGGUCGACCGGUCUGAUGAGUCUUAAUCUAGACGAAACAGC [UAAUCU], the “FACS-Seq fitted mean (log10)” value in series [1] came to 0.5653 ± 0.0022; in series [4] it was 0.561 ± 0.067. In series [2], the “normalized RNA/DNA level with ligand (log10)” value was found to be 1.96 ± 0.043. Besides, the “normalized RNA/DNA level without ligand (log10)” value in series [3] is 1.87 ± 0.061.

GCUGUCACCGGUGUAUUACCCUAGUGGUCGACCGGUCUGAUGAGUCUUAAUCGAGACGAAACAGC [UAAUCG]: the “FACS-Seq fitted mean (log10)” value is -0.0742 ± 0.028 in series [1] and 0.247 ± 0.059 in series [4]. In series [2], the “normalized RNA/DNA level with ligand (log10)” value came out at 1.93 ± 0.021. For the same variant, the “normalized RNA/DNA level without ligand (log10)” value in series [3] was 1.633 ± 0.014.

Regarding GCUGUCACCGGUGUAUUACCCUAGUGGUCGACCGGUCUGAUGAGUCUAAAUGGAGACGAAACAGC [AAAUGG], the “FACS-Seq fitted mean (log10)” value was 0.175 ± 0.024 in series [1] and 0.502 ± 0.013 in series [4]. Besides, the “normalized RNA/DNA level with ligand (log10)” value in series [2] is 1.78 ± 0.025. Besides, the “normalized RNA/DNA level without ligand (log10)” value in series [3] turned out to be 1.33 ± 0.019.

Regarding GCUGUCACCGGUGUAUUACCCUAGUGGUCGACCGGUCUGAUGAGUCUAAAUGAAGACGAAACAGC [AAAUGA], the “FACS-Seq fitted mean (log10)” value in series [1] turned out to be 0.89 ± 0.066; in series [4], 0.709 ± 0.13. For the same variant, the “normalized RNA/DNA level with ligand (log10)” value in series [2] was found to be 1.924 ± 0.0069. Further, the “normalized RNA/DNA level without ligand (log10)” value in series [3] is 1.688 ± 0.0025.

With GCUGUCACCGGUGUAUUACCCUAGUGGUCGACCGGUCUGAUGAGUCUAAAUGCAGACGAAACAGC [AAAUGC], the entries for the “FACS-Seq fitted mean (log10)” value in series [1] and in series [4] were -0.0368 ± 0.059 and 0.173 ± 0.096, respectively. The “normalized RNA/DNA level with ligand (log10)” value in series [2] turned out to be 1.92 ± 0.029. The “normalized RNA/DNA level without ligand (log10)” value in series [3] worked out at 1.76 ± 0.026.

On to GCUGUCACCGGUGUAUUACCCUAGUGGUCGACCGGUCUGAUGAGUCUCAAUCCAGACGAAACAGC [CAAUCC], for which the “FACS-Seq fitted mean (log10)” value stood at 0.406 ± 0.038 in series [1] and 0.468 ± 0.05 in series [4]. The “normalized RNA/DNA level with ligand (log10)” value in series [2] was 1.97 ± 0.086. In series [3], the “normalized RNA/DNA level without ligand (log10)” value came out at 1.82 ± 0.026.

For the variant GCUGUCACCGGUGUAUUACCCUAGUGGUCGACCGGUCUGAUGAGUCUGAAUACAGACGAAACAGC [GAAUAC], the “FACS-Seq fitted mean (log10)” value in series [1] was found to be 0.23 ± 0.012; in series [4], 0.499 ± 0.062. Moreover, the “normalized RNA/DNA level with ligand (log10)” value in series [2] is 1.89 ± 0.044. Besides, the “normalized RNA/DNA level without ligand (log10)” value in series [3] was 1.713 ± 0.0067.

GCUGUCACCGGUGUAUUACCCUAGUGGUCGACCGGUCUGAUGAGUCUGAAUAGAGACGAAACAGC [GAAUAG]: the “FACS-Seq fitted mean (log10)” value in series [1] was found to be 0.0583 ± 0.0095; in series [4], 0.459 ± 0.05. Further, the “normalized RNA/DNA level with ligand (log10)” value in series [2] came to 1.786 ± 0.011. In addition, the “normalized RNA/DNA level without ligand (log10)” value in series [3] came out at 1.35 ± 0.026.

Take GCUGUCACCGGUGUAUUACCCUAGUGGUCGACCGGUCUGAUGAGUCUUAAUAGAGACGAAACAGC [UAAUAG]: the “FACS-Seq fitted mean (log10)” value in series [1] is 0.548 ± 0.036; in series [4], 0.666 ± 0.019. Moreover, the “normalized RNA/DNA level with ligand (log10)” value in series [2] was 1.874 ± 0.0076. The “normalized RNA/DNA level without ligand (log10)” value in series [3] came out at 1.631 ± 0.014.

For GCUGUCACCGGUGUAUUACCCUAGUGGUCGACCGGUCUGAUGAGUCUUAAUAUAGACGAAACAGC [UAAUAU], the “FACS-Seq fitted mean (log10)” value in series [1] turned out to be 0.353 ± 0.012; in series [4], 0.558 ± 0.096. Also, the “normalized RNA/DNA level with ligand (log10)” value in series [2] worked out at 1.91 ± 0.061. Besides, the “normalized RNA/DNA level without ligand (log10)” value in series [3] was found to be 1.796 ± 0.005.

As to GCUGUCACCGGUGUAUUACCCUAGUGGUCGACCGGUCUGAUGAGUCUCAAUGGAGACGAAACAGC [CAAUGG], the figures for the “FACS-Seq fitted mean (log10)” value in series [1] and in series [4] were -0.334 ± 0.031 and 0.178 ± 0.12, respectively. In addition, the “normalized RNA/DNA level with ligand (log10)” value in series [2] worked out at 1.82 ± 0.071. The “normalized RNA/DNA level without ligand (log10)” value in series [3] worked out at 1.42 ± 0.042.

GCUGUCACCGGUGUAUUACCCUAGUGGUCGACCGGUCUGAUGAGUCUGAAUCAAGACGAAACAGC [GAAUCA]: the entries for the “FACS-Seq fitted mean (log10)” value in series [1] and in series [4] were 0.438 ± 0.055 and 0.46 ± 0.066, respectively. Besides, in series [2], the “normalized RNA/DNA level with ligand (log10)” value amounted to 1.94 ± 0.065. Further, in series [3], the “normalized RNA/DNA level without ligand (log10)” value stood at 1.809 ± 0.013.

For the variant GCUGUCACCGGUGUAUUACCCUAGUGGUCGACCGGUCUGAUGAGUCUGAAUCGAGACGAAACAGC [GAAUCG], the “FACS-Seq fitted mean (log10)” value in series [1] was 0.14 ± 0.0063; in series [4] it was 0.439 ± 0.05. Moreover, the “normalized RNA/DNA level with ligand (log10)” value in series [2] was 1.84 ± 0.02. Moreover, the “normalized RNA/DNA level without ligand (log10)” value in series [3] was 1.4 ± 0.053.

As to GCUGUCACCGGUGUAUUACCCUAGUGGUCGACCGGUCUGAUGAGUCUAAAUCGAGACGAAACAGC [AAAUCG], the figures for the “FACS-Seq fitted mean (log10)” value in series [1] and in series [4] were 0.0899 ± 0.022 and 0.509 ± 0.04, respectively. Moreover, the “normalized RNA/DNA level with ligand (log10)” value in series [2] was found to be 1.86 ± 0.04. In addition, in series [3], the “normalized RNA/DNA level without ligand (log10)” value stood at 1.36 ± 0.014.

As for GCUGUCACCGGUGUAUUACCCUAGUGGUCGACCGGUCUGAUGAGUCUAAAUCAAGACGAAACAGC [AAAUCA], the “FACS-Seq fitted mean (log10)” value in series [1] was determined as 0.598 ± 0.077; in series [4], 0.629 ± 0.082. Moreover, the “normalized RNA/DNA level with ligand (log10)” value in series [2] stood at 1.927 ± 0.0036. For the same variant, the “normalized RNA/DNA level without ligand (log10)” value in series [3] stood at 1.8121 ± 0.0018.

On to GCUGUCACCGGUGUAUUACCCUAGUGGUCGACCGGUCUGAUGAGUCUAAAUAUAGACGAAACAGC [AAAUAU], for which the results for the “FACS-Seq fitted mean (log10)” value in series [1] and in series [4] were -0.168 ± 0.02 and -0.451 ± 0.1, respectively. Also, in series [2], the “normalized RNA/DNA level with ligand (log10)” value worked out at 1.924 ± 0.012. The “normalized RNA/DNA level without ligand (log10)” value in series [3] stood at 1.763 ± 0.0044.

Take GCUGUCACCGGUGUAUUACCCUAGUGGUCGACCGGUCUGAUGAGUCUAAAUAGAGACGAAACAGC [AAAUAG]: the “FACS-Seq fitted mean (log10)” value in series [1] is 0.258 ± 0.041; in series [4], 0.487 ± 0.016. The “normalized RNA/DNA level with ligand (log10)” value in series [2] was 1.842 ± 0.0027. Besides, the “normalized RNA/DNA level without ligand (log10)” value in series [3] was found to be 1.44 ± 0.018.

Turning to GCUGUCACCGGUGUAUUACCCUAGUGGUCGACCGGUCUGAUGAGUCUUAAUGGAGACGAAACAGC [UAAUGG], the “FACS-Seq fitted mean (log10)” value in series [1] turned out to be 0.218 ± 0.021; in series [4], 0.457 ± 0.038. Also, the “normalized RNA/DNA level with ligand (log10)” value in series [2] amounted to 1.87 ± 0.044. Further, the “normalized RNA/DNA level without ligand (log10)” value in series [3] was 1.53 ± 0.052.

For the variant GCUGUCACCGGUGUAUUACCCUAGUGGUCGACCGGUCUGAUGAGUCUGAAUGAAGACGAAACAGC [GAAUGA], the “FACS-Seq fitted mean (log10)” value in series [1] is 0.481 ± 0.081; in series [4] it was 0.688 ± 0.028. In addition, the “normalized RNA/DNA level with ligand (log10)” value in series [2] is 1.922 ± 0.0024. For the same variant, the “normalized RNA/DNA level without ligand (log10)” value in series [3] is 1.66 ± 0.057.

Turning to GCUGUCACCGGUGUAUUACCCUAGUGGUCGACCGGUCUGAUGAGUCUGAAUGCAGACGAAACAGC [GAAUGC], the results for the “FACS-Seq fitted mean (log10)” value in series [1] and in series [4] were 0.275 ± 0.016 and 0.577 ± 0.011, respectively. Moreover, the “normalized RNA/DNA level with ligand (log10)” value in series [2] is 1.863 ± 0.014. For the same variant, the “normalized RNA/DNA level without ligand (log10)” value in series [3] was determined as 1.53 ± 0.03.

GCUGUCACCGGUGUAUUACCCUAGUGGUCGACCGGUCUGAUGAGUCUGAAUGGAGACGAAACAGC [GAAUGG]: the figures for the “FACS-Seq fitted mean (log10)” value in series [1] and in series [4] were -0.206 ± 0.053 and 0.417 ± 0.012, respectively. Further, the “normalized RNA/DNA level with ligand (log10)” value in series [2] worked out at 1.76 ± 0.037. Further, the “normalized RNA/DNA level without ligand (log10)” value in series [3] turned out to be 1.216 ± 0.012.
